From publication doi:10.1101/2022.07.22.501112, “An unexpected histone chaperone function for the MIER1 histone deacetylase complex” (bioRxiv, 2022)
Values belong to the binder of their own block, whether it stands above or below them. Numbered stars: 1 amine (or outer) side, 2 acyl side, 3 side chain; on linkers, the order of the positions; unused ones are H or OH. Square brackets hold non-standard residues; d marks the D form. Ends that are not written are not given here. Lys(Me3) = C[N+](C)(C)CCCC[C@H](N)C(=O)O; Ethylenediamine = C(CN[*:2])N[*:1]; 5‑FAM = fluorescent label

Assays:
[1] = molecular target: T1, E. coli expressed BAHD1(aa:588-780) (UniProt Q8TBE0 588-780); assay: fluorescence polarisation; 5 nM 5-FAM labelled histone peptide, BAHD1(aa:588-780) 0-142 uM, 25 mM Tris/Cl pH 7.5, 50 mM NaCl, 15 mins at 37 C; one-site binding model; conditions: both partners purified
T1 construct: BAHD1, BAH domain, residues 588-780; also called BAH domain of BAHD1; source: E. coli expressed
T1 sequence (looked up): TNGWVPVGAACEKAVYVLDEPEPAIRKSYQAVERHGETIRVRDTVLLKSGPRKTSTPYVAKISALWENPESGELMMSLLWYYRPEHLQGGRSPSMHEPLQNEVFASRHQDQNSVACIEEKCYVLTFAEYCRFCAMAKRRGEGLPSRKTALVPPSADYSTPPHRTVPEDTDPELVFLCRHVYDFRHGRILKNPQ

[2] = molecular target: T2, Full length HDAC1(aa:1-482) (UniProt Q13547 1-482); assay: co-IP + SEC; FLAG-tagged MIER1 construct co-expressed with untagged HDAC1 in HEK293F; anti-FLAG M2 resin, TEV cleavage, Superdex S200 in 25 mM Tris/HCl pH 7.5, 50 mM potassium acetate, 0.5 mM TCEP; SDS-PAGE, bands identified by MS; conditions: partners not purified
T2 construct: also called histone deacetylase 1
T2 sequence (Q13547 whole entry): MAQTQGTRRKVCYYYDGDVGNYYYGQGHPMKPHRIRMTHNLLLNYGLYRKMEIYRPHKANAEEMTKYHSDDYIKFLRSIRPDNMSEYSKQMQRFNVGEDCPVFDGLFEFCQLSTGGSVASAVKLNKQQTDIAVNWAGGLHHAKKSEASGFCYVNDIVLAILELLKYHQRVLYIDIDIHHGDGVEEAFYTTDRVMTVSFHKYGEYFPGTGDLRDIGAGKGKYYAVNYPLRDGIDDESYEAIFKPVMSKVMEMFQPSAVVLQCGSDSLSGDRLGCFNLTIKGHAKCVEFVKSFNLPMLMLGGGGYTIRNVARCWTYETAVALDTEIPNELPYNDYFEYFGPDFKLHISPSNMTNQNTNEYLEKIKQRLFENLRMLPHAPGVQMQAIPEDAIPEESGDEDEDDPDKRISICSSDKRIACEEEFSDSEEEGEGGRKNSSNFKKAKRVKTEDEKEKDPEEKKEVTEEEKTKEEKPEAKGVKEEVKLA

- binding result [1]: binds
B1: H3 16-35 K27me3 peptide (peptide)
peptide: PRKQLATKAAR[Lys(Me3)]SAPATGG-{Ethylenediamine-4‑Abu-5‑FAM}
notes: The twelfth letter (K27) is trimethyl-lysine; also called H3 histone tail bearing a K27me3 modification; source: synthetic peptide, bought: Cambridge Research Biochemicals

- binding result [2]: binds
B2: FLAG-tagged MIER1(aa:171-350), ELM2-SANT domain (domain or fragment, human, UniProt Q8N108 171-350, looked up)
chain: DYIPSEDWKKEIMVGSMFQAEIPVGICRYKENEKVYENDDQLLWDPEYLPEDKVIIFLKDASRRTGDEKGVEAIPEGSHIKDNEQALYELVKCNFDTEEALRRLRFNVKAAREELSVWTEEECRNFEQGLKAYGKDFHLIQANKVRTRSVGECVAFYYMWKKSERYDFFAQQTRFGKKKY
notes: Captured on anti-FLAG resin by the tag; the tag was then cut off by TEV protease before gel filtration and SEC-MALS (21 kDa counted for the fragment); also called MIER ELM2-SANT; source: HEK293F, co-transfected with HDAC1; anti-FLAG resin, TEV cleavage, Superdex S200; not shown: 10xHis-3xFLAG, N-terminal, kept
